The results in this text go back to article PMC5614552 (Biochemistry and Biophysics Reports, 2016).

In the test the target is human CD34 protein (Fc tag; Sino Biological Incorporation) (Homo sapiens, UniProt P28906). The experiment in a line: SPR. A general note: SPR reads the build-up and loss of mass on a sensor chip optically.

One may read the Kd as the concentration at which binding is half-saturated. Lower therefore signals higher affinity. As usually defined, the koff is a measure of how fast the partners let go of each other. The term kon denotes a measure of how fast the partners come together. Low readings indicate slower complex formation, high ones faster complex formation.

Chain of human CD34 protein (Fc tag; Sino Biological Incorporation) (P28906 32-290): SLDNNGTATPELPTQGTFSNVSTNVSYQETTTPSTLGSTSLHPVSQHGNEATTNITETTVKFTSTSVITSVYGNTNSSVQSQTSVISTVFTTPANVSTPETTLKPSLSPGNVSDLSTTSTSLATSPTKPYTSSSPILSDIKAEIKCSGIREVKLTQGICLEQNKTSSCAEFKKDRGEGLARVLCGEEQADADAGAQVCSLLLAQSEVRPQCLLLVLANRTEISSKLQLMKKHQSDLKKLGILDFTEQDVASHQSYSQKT

B1: Chimeric QBEND/10 (antibody, V domains shown)
VH: QVQLEQSGPELVKPGASVKMSCKASGYTFTSYVIHWVKQKPGQGLEWLGYTNPYNDVTKYNEKFKFKATLTSDKQSTTAYMEFSSLTSEDSAVYYCARYGGLWLYAMDYWGQGTSVTVSS
VL: QLVLTQSSSASFSLGASAKLTCTLSSQHRTFTIEWYQQQPLKPPKYVMELRKDGSHSTGDGIPDRFSGSSSGADRYLSISNIQPEDEAIYICGVGNTIKEQFVYVFGGGTKVTVL
On to B1, for which binding was put at a Kd of 14.7 nM, the off-rate constant (koff) came to 0.000262 s⁻¹ and the kon was determined as 17800 M⁻¹ s⁻¹.
